{"source": "patent US20190015515A1", "key": {"[1]": {"target": "glucose transporter 4 (GLUT4) on mouse red blood cells (mRBCs) or mRBC membranes (mouse) (UniProt P14142)", "sequence (P14142 whole entry)": "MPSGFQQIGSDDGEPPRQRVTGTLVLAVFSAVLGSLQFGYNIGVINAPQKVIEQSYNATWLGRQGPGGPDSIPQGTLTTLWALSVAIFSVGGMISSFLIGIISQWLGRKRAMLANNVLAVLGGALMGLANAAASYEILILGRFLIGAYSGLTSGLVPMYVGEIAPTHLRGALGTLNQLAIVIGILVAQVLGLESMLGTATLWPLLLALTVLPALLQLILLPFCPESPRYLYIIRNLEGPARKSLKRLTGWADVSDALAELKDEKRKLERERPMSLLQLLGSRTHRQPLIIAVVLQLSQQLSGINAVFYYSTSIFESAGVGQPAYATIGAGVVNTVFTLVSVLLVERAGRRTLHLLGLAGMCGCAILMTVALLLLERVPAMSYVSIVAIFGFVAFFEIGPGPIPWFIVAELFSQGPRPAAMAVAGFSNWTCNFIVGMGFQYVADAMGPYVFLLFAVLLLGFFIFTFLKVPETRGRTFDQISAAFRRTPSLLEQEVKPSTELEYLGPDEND", "experiment": "loading of 1x10^8 RBCs with 0.5 mg/mL Glu-Insulin overnight, ELISA"}, "[2]": {"target": "glucose transporter 1 (GLUT1) on human red blood cells (hRBCs) (human) (UniProt P11166)", "sequence (P11166 whole entry)": "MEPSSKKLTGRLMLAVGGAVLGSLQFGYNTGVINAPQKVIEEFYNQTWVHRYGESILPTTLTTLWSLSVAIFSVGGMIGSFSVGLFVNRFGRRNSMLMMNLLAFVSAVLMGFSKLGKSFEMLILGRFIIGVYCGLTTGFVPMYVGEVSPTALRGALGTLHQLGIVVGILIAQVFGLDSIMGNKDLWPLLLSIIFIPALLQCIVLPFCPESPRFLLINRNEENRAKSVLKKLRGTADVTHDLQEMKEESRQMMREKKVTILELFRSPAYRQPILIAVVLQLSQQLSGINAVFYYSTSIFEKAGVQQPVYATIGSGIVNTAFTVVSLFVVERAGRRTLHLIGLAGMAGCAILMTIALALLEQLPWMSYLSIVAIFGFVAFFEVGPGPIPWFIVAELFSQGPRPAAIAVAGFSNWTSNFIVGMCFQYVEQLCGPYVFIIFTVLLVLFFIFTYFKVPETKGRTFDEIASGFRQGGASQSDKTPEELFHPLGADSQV", "experiment": "loading of 1x10^8 RBCs with 0.5 mg/mL Glu-Insulin overnight, ELISA"}, "[3]": {"target": "glucose transporter 4 (GLUT4) on mouse red blood cells (mRBCs) or mRBC membranes (mouse) (UniProt P14142)", "experiment": "ELISA of insulin bound to mRBCs"}, "[4]": {"target": "glucose transporter 4 (GLUT4) on mouse red blood cells (mRBCs) or mRBC membranes (mouse) (UniProt P14142)", "experiment": "ELISA of insulin released from Glu-Insulin loaded mRBCs at 37 C"}, "[5]": {"target": "glucose transporter 4 (GLUT4) on mouse red blood cells (mRBCs) or mRBC membranes (mouse) (UniProt P14142)", "experiment": "flow cytometry (MFI) of Glu-FITC-insulin attached mRBCs treated with free glucose"}}, "data": [{"substance": "glucose-modified insulin (Glu-Insulin) (from UniProt P01308 90-110; P01308 25-54) (ligand)", "values": [{"measurement": "percent of Glu-Insulin bound", "setting": "[1]", "result": 20, "unit": "%"}, {"measurement": "percent of Glu-Insulin bound", "setting": "[2]", "result": 60, "unit": "%"}, {"measurement": "loaded insulin per cell", "setting": "[3]", "result": "< 5e-13", "unit": "g per cell"}, {"measurement": "percent released from mRBCs at 400 mg/dL glucose within 2 h", "setting": "[4]", "result": 50, "unit": "%"}, {"measurement": "decrease of insulin signal on mRBCs at 400 mg/dL glucose", "setting": "[5]", "result": 50, "unit": "%"}]}]}
